Target: 1G4 TCRαβ with TCRβ T130C/H172C, on J8Zb2m-α-β- reporter T cells (human)

iTAg tetramer/APC – HLA-A*02:01 NY-ESO-1 (…) (from UniProt P61769 21-119) (peptide-MHC)
peak NFAT reporter response to HLA–antigen tetramers relative to wild type: 50 % reduction
